Experimental data as given in the supplement of paper PMC7877785.
± gives the uncertainty stated by the source.

Test: self-splicing fitness, log relative to wild type (ln ratio); higher = more splicing; Tetrahymena group I intron in knt gene, E. coli kanamycin selection, DiMSum; sequences stand for … in CUCUCU…GGAGGGAAAAGUUAUCAGGCAUGCACCUGGUAGCUAGUCUUUAAACCAAUAGAUUGCAUCGGUUUAAAAGGCAAGACCGUCAAAUUGCGGGAAAGGGGUCAACAGCCGUUCAGUACCAAGUCUCAGGGGAAACUUUGAGAUGGCCUUGCAAAGGGUAUGGUAAUAAGCUGACGGACAUGGUCCUAACCACGCAGCCAAGUCCUAAGUCAACAGAUCUUCUGUUGAUAUGGAUGCAGUUCACAGACUAAAUGUCGGUCGGGGAAGAUGUAUUCUUCUCAUAAGAUAUAGUCGGACCUCUCCUUAAUGGGAGCUAGCGGAUGAAGUGAUGCAACACUGGAGCCGCUGGGAACUAAUUUGUAUGCGAAAGUAUAUUGAUUAGUUUUGGAGUACUCGUGGUCG
Summary of the method: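 Six replicate transformations of E. coli BL21(DE3) with a pET-22b(+) library were grown overnight at 37°C or 30°C. The library randomised all eight P1ex-region intron nucleotides, the intron lying in the knt kanamycin-resistance gene, and plates were LB agar with or without 25 μg/mL kanamycin plus 100 μg/mL carbenicillin, 50 μM IPTG and 0.2% rhamnose. Pooled colonies were amplicon-sequenced on an Illumina HiSeq 2500, and fitness is the DiMSum error-weighted combination of wild-type-normalised replicate fold changes, kanamycin versus none.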

Sequence	self-splicing fitness (ln) (37 °C)	self-splicing fitness (ln) (30 °C)
UGGGAGCAAUAUUACGCUUU	-2.01 ± 0.31	
CAAGAGCAAUAUUACGUCUU	-1.46 ± 0.11	-3.62 ± 0.25
CACCAGCAAUAUUACGUUGC	-3.5 ± 0.24	-3.93 ± 0.17
GUAUAGCAAUAUUACGCCCG	-1.37 ± 0.23	-1.63 ± 0.17
ACAGAGCAAUAUUACGGAUG	-3.37 ± 0.37	-4.02 ± 0.31
CCCGAGCAAUAUUACGAAAU	-0.929 ± 0.16	-3.65 ± 0.33
AGGUAGCAAUAUUACGUGAA	-1.34 ± 0.034	-2.213 ± 0.016
ACAUAGCAAUAUUACGCUCA	-0.358 ± 0.12	-0.539 ± 0.11
UAGGAGCAAUAUUACGAUCG	-0.888 ± 0.21	-1.65 ± 0.16
AAUUAGCAAUAUUACGACCA	0.48 ± 0.12	-0.406 ± 0.1
CCGAAGCAAUAUUACGUUAU	-2.87 ± 0.2	-3.94 ± 0.32
CCAGAGCAAUAUUACGAGUA	-3.39 ± 0.28	-2.97 ± 0.23
GUAGAGCAAUAUUACGCAAU	-0.0736 ± 0.11	-2.52 ± 0.11
GGCAAGCAAUAUUACGACUU	0.226 ± 0.083	-0.555 ± 0.082
UGAAAGCAAUAUUACGGGGG	-2.89 ± 0.26	-2.07 ± 0.17
UGCGAGCAAUAUUACGUCUC		-0.82 ± 0.28
GUCAAGCAAUAUUACGCGUA	-0.362 ± 0.077	-1.32 ± 0.08
AGACAGCAAUAUUACGUAGG	-1.28 ± 0.11	-2.6 ± 0.11
UGUUAGCAAUAUUACGAGCG	-0.175 ± 0.12	0.176 ± 0.095
GUCCAGCAAUAUUACGGUCU	-1.2 ± 0.12	-2.7 ± 0.12
GGUAAGCAAUAUUACGCAAC	-1.35 ± 0.38	
GGUUAGCAAUAUUACGUGUC	-0.323 ± 0.12	-1.03 ± 0.097
UUAUAGCAAUAUUACGCCUC	-1.59 ± 0.3	-2.77 ± 0.39
GCGCAGCAAUAUUACGCGCA	0.322 ± 0.13	-4.09 ± 0.32
GCUCAGCAAUAUUACGUGGA	-1.63 ± 0.12	-1.91 ± 0.1

Sequence	self-splicing fitness (ln) (37 °C)	self-splicing fitness (ln) (30 °C)
GCCGAGCAAUAUUACGGGUU	-0.886 ± 0.092	-3.35 ± 0.17
AAUGAGCAAUAUUACGCCUA	-1.62 ± 0.25	-1.13 ± 0.21
AAGAAGCAAUAUUACGGCUC	-0.0707 ± 0.15	-1.19 ± 0.12
GUAAAGCAAUAUUACGCGGA	-1.3 ± 0.11	-1.51 ± 0.086
CUCGAGCAAUAUUACGUCGA	-1.67 ± 0.24	-3.29 ± 0.28
AUGGAGCAAUAUUACGCCCU	-2.13 ± 0.37	-2.84 ± 0.3
UAUGAGCAAUAUUACGACUG	-0.328 ± 0.14	-1.23 ± 0.12
AGUCAGCAAUAUUACGAGCC	0.0229 ± 0.3	-0.0313 ± 0.25
CUCUAGCAAUAUUACGCCAG		-2.53 ± 0.32
CACCAGCAAUAUUACGCCGC	-2.43 ± 0.29	-3.35 ± 0.2
CGCUAGCAAUAUUACGACGG	0.553 ± 0.14	-0.226 ± 0.11
CUGGAGCAAUAUUACGUCGU	-2.39 ± 0.22	-3.88 ± 0.23
UGGCAGCAAUAUUACGAAGA	-1.41 ± 0.2	-1.98 ± 0.2
GCUCAGCAAUAUUACGAUUG	-1.11 ± 0.12	-2.83 ± 0.12
CUUGAGCAAUAUUACGGGGA	-2.87 ± 0.28	-3.27 ± 0.2
CUAAAGCAAUAUUACGCCAC		-2.89 ± 0.49
GUUAAGCAAUAUUACGAACU	-0.527 ± 0.2	-2.35 ± 0.2
AUAUAGCAAUAUUACGACCU	0.267 ± 0.15	-0.348 ± 0.14
UAUUAGCAAUAUUACGGACC		-1.51 ± 0.43
GUUGAGCAAUAUUACGUACC		-1.75 ± 0.36
GGUAAGCAAUAUUACGUUAC	-1.35 ± 0.31	-3.08 ± 0.34
UGAAAGCAAUAUUACGAGGA	-1.81 ± 0.15	-3.43 ± 0.24
GCGAAGCAAUAUUACGGCCA	-0.821 ± 0.1	-0.992 ± 0.092
UCUCAGCAAUAUUACGCGAC	-2.37 ± 0.35	
CUACAGCAAUAUUACGCGUA	-2.84 ± 0.3	-3.72 ± 0.31
